Columns and labels:
Human whole blood [1] = test: Cytokine release in whole blood at 24 hrs, MSD assay; type: cell-based
Procedure: Human whole blood (Lithium heparin tubes) was taken from one donor (HTA #031219-06) at UCB Pharma Slough, UK according to approved ethical sample collection protocol.
In a Greiner 96-well non-binding microplate, Fab-X and Fab-Y combination 6294-X/4133-Y was added to PBS to give a Fab-KD-Fab concentration of 2000 nM. Similarly, stocks of 4133-6294 BYbe and NegCtrl BYbe were prepared in PBS at 2000 nM. The microplate was incubated for 1 hr at 37° C., 5% CO2. Following the incubation, Fab-KD-Fab and BYbe reagents were then serially diluted in PBS 1 in 5, seven times to produce to form an 8-point dose curve.
12.5 μl of Fab-KD-Fab or BYbe dilution was transferred into Corning Costar 96-well, cell culture treated, U-shaped-bottom microplate (cat no. 07-200-95) and 237.5 μl of whole blood added to each well. Final well concentrations of Fab-KD-Fab or BYbes were 100-0.00128 nM. […]
Measurement of cytokines was carried out using the V-PLEX Human Proinflammatory Panel I (4-Plex) (IFN-γ, IL-1β, IL-6, TNF-α, cat no. K15052D, Meso Scale Discovery) according to manufacturer's instructions. […] The plates were washed as before, and 150 μl of read buffer (diluted 1 in 2 in dH2O) was added to each well. The plates were then analysed on a SECTOR Imager 6000 (Meso Scale Discovery).

Human whole blood [2] = test: Cytokine release in whole blood at 24 hrs, Luminex bead assay; type: cell-based
Procedure: Human whole blood (Lithium heparin tubes) was taken from two donors (HTA #300120-1 & #300120-2) at UCB Pharma Slough, UK according to approved ethical sample collection protocol.
In a Greiner 96-well non-binding microplate, stocks of 4133-6294 BYbe and negative control BYbe (NegCtrl BYbe), with antigen-irrelevant specificity in both the Fab and scFv positions, were prepared in PBS at 5000 nM. The BYbe reagents were then serially diluted in PBS 1 in 5, three times to produce to form a 4-point dose curve. 12.5 μl of BYbe dilution was transferred into Corning Costar 96-well, cell culture treated, U-shaped-bottom microplate (cat no. 07-200-95) and 237.5 μl of whole blood added to each well. Final well concentrations of BYbes were 250 nm, 50 nM, 10 nm and 2 nM. Campath (clinical grade, diluted from 30 mg/ml stock to 1 mg/ml in PBS, lot number F1002H29) was used as a positive control at a final concentration of 10 μg/ml. Plates were sealed with a gas permeable adhesive seal and plate lids were replaced. Plates were then incubated for 24 hrs at 37° C. and 5% humidified CO2 in an undisturbed location.
Cytokine release was then assessed using a R&D Systems Luminex 13-plex human cytokine assay (custom selection of cytokines as follows; IL-1 RA, IL-4, IL-5, IL-6, IL-10, IL-11, IL-13, CCL2, IL-8, CXCL1, CX3CL1, GM-CSF and M-CSF). Following the 24-hour incubation, plates were spun at 1000 g for 10 mins and 50 μl of plasma was transferred to a separate plate containing 50 μl of assay diluent buffer (RD6-52 from the Luminex kit). Samples were resuspended thoroughly using a multichannel pipette and 50 μl transferred to the Luminex assay plate. Luminex assay standards were diluted 1 in 2, seven times to construct standard curves and added to the plate. 50 μl of microparticle mixture was then added to each well and plates incubated for 2 hrs at room temperature (RT) and mixed at 800 rpm. Plates were washed 3 times by adding 150 μl of wash buffer to each well then allowing the magnetic beads to bind to a BioTek ELx405 microplate washer magnet before supernatant was aspirated. 50 μl of biotin-antibody cocktail was added to each well at plates incubated for 1 hr at RT with shaking. Plates were then washed as before and a final addition of 50 μl of streptavidin-PE added to each well. Plates were incubated for 30 mins at RT with shaking before a final wash step and addition of 50 μl of wash buffer to each well. The Luminex assay plate was run using the iQUEplus flow cytometer (Sartorius). Standard curves were generated (using provided assay controls) and extrapolated cytokine values generated using Forecyt software (Sartorius). Data was then transferred to Graphpad Prism version 8.1 (Graphpad) to generate data visualisations.

[3] = Campath 10 μg/ml, donor #300120-1

Campath: anti-CD52, clinical grade, indicated by FDA for B-cell Chronic Lymphocytic Leukaemia; positive control [reference compound]
levels of IL-1β (Human whole blood [1]; Campath 10 μg/ml, other reagents 100-0.00128 nM): marked level
IL-6 level induced (Human whole blood [2]; Campath 10 μg/ml, above PBS-treated wells): marked levels
CCL2 level induced (Human whole blood [2]; [3]): exceeded the standard curve
IL-1 RA level induced (Human whole blood [2]; [3]): exceeded the standard curve
IL-8 level induced (Human whole blood [2]; [3]): exceeded the standard curve

B1: 4133-6294 BYbe: anti-CD45 BYbe (Fab-scFv): 4133 Fab HC-G4S linker-6294 scFv heavy chain paired with 4133 light chain (antibody)
heavy: QEQLVESGGGLVQPEGSLTLTCTASGFSFSGNYYMCWVRQAPGKGLEWIGCLYTGSSGSTYYASWAKGRFTISKTSSTTVTLQMTSLTAADTATYFCARDLGYEIDGYGGLWGQGTLVTVSSGQPKAPSVFPLAPCCGDTPSSTVTLGCLVKGYLPEPVTVTWNSGTLTNGVRTFPSVRQSSGLYSLSSVVSVTSSSQPVTCNVAHPATNTKVDKTVAPSTCSKPGGGGSGGGGSEVQLVESGAELARPGASVKMSCKASGYTFTSYTMHWVKQRPGQCLEWIGYINPSSGYTEYNQKFKDKTTLTADKSSSTAYLQLSSLTSEDSAVYYCARVGDGFYPSWLAYWGQGTLVTVSSGGGGSGGGGSGGGGSGGGGSDIQMTQSPKFLLVSAGDRVTITCKASQSVRNDVAWYQQKPGQSPKLLIFYASKRYTGVPDRFTGSGYGTDFTFTISTVQAEDLAVYFCQQDYSSPTTFGCGTKLEIK
light: AQVLTQTPSPVSAVVGGTVSISCQASQSVYNNNNLSWYQQKPGQPPKLLIYDASKLASGVPSRFKGSGSGTQFTLTISGVQCDDAATYYCLGGYYSSGWYFAFGGGTKVVVKRTPVAPTVLIFPPAADQVATGTVTIVCVANKYFPDVTVTWEVDGTTQTTGIENSKTPQNSADCTYNLSSTLTLTSTQYNSHKEYTCKVTQGTTSVVQSFNRGDC
induction of inflammatory cytokines (IFN-γ, IL-6, TNF-α) (Human whole blood [1]; 100-0.00128 nM, compared with PBS- and NegCtrl BYbe-treated wells): little or no induction
induction of inflammatory cytokines (Human whole blood [2]; 250-2 nM, compared with PBS- and NegCtrl BYbe-treated wells): little or no induction
